For experiment [1], the target named is HLA-B*15:01. The experiment in a line: IEDB peptide-MHC binding, purified MHC/competitive/fluorescence; ≥ and ≤ were set here for values at or beyond the usual limits of such assays.
Experiment [2] deals with HLA-A*02:01. Described as above.
Experiment [3] concerns the target HLA-A*24:02. The description is as above.
In experiment [4] the target is HLA-A*11:01. The description is as above. Conditions: source organism: Zaire ebolavirus.
In experiment [5] the target is HLA-A*03:01. Described as above. Conditions: source organism: Zaire ebolavirus.
Experiment [6] has as its target HLA-A*32:01. The experiment in a line: IEDB peptide-MHC binding, purified MHC/competitive/radioactivity; filed as Kd, often an IC50 or EC50 that approximates it; ≥ and ≤ were set here for values at or beyond the usual limits of such assays.
Experiment [7] has as its target HLA-B*57:01. Described as above.
In experiment [8] the target is HLA-B*58:01. The experiment is described as above.
Experiment [9] has as its target HLA-A*31:01. Description: IEDB peptide-MHC binding, purified MHC/competitive/fluorescence; filed as Kd, often an IC50 or EC50 that approximates it; ≥ and ≤ were set here for values at or beyond the usual limits of such assays.
The target of experiment [10] is HLA-A*11:01. The experiment in a line: IEDB peptide-MHC binding, purified MHC/direct/fluorescence; filed as Kd, often an IC50 or EC50 that approximates it; ≥ and ≤ were set here for values at or beyond the usual limits of such assays.
The target in experiment [11] is HLA-A*03:01. Described as above.
The target in experiment [12] is HLA-B*44:02. The description is as above.
In experiment [13] the target is HLA-B*40:01. The description is as above.
For experiment [14], the target named is HLA-B*18:01. The experiment is described as above. To be noted: source organism: Orthohantavirus hantanense.
Experiment [15] concerns the target HLA-A*24:03. Description: IEDB peptide-MHC binding, purified MHC/competitive/fluorescence; filed as Kd, often an IC50 or EC50 that approximates it; ≥ and ≤ were set here for values at or beyond the usual limits of such assays.
The target in experiment [16] is HLA-A*02:01. The experiment is described as above. To be noted: source organism: Escherichia coli.
Experiment [17] deals with HLA-A*01:01. The description is as above.
Experiment [18] addresses HLA-B*07:02. The experiment in a line: IEDB peptide-MHC binding, purified MHC/direct/fluorescence; filed as Kd, often an IC50 or EC50 that approximates it; ≥ and ≤ were set here for values at or beyond the usual limits of such assays.
Experiment [19] addresses HLA-A*01:01. The experiment is described as above.
Experiment [20] addresses HLA-A*69:01. Described as above.
The target in experiment [21] is HLA-B*27:05. The description is as above.
For experiment [22], the target named is HLA-A*02:01. The description is as above.
Experiment [23] deals with HLA-B*08:01. The experiment is described as above.
For experiment [24], the target named is HLA-A*26:01. Described as above.
The target in experiment [25] is HLA-A*31:01. Described as above.
Experiment [26] deals with HLA-B*58:01. Described as above.
The target in experiment [27] is HLA-B*15:01. The experiment is described as above. To be noted: source organism: Giardia lamblia ATCC 50803.
The target of experiment [28] is HLA-B*15:17. Described as above.
Experiment [29] concerns the target HLA-B*57:01. The experiment is described as above.
The target in experiment [30] is HLA-A*03:01. Description: IEDB peptide-MHC binding, purified MHC/competitive/fluorescence; filed as Kd, often an IC50 or EC50 that approximates it; ≥ and ≤ were set here for values at or beyond the usual limits of such assays. To be noted: source organism: Salmonella enterica subsp. enterica serovar Typhi.
[31] abbreviates: source organism: Zaire ebolavirus.
Setting [32] is: source organism: Dengue virus 1 Brazil/97-11/1997.
The mark [33] stands for this setting: source organism: Vaccinia virus WR.
Setting [34] is: source organism: Burkholderia mallei.
Setting [35] is: source organism: Orthohantavirus hantanense.
The mark [36] stands for this setting: source organism: Escherichia coli.
The mark [37] stands for this setting: source organism: Dengue virus 2 Jamaica/1409/1983.
Setting [38] is: source organism: Dengue virus 3 Martinique/1243/1999.
The mark [39] stands for this setting: source organism: Vibrio cholerae.
Where [40] appears, read: source organism: Brucella abortus 2308.
Where [41] appears, read: source organism: Giardia lamblia ATCC 50803.
Where [42] appears, read: source organism: Camelpox virus M-96.
Where [43] appears, read: source organism: Yersinia pestis Antiqua.
Where [44] appears, read: source organism: Vaccinia virus Copenhagen.
Where [45] appears, read: source organism: Marburg virus - Musoke, Kenya, 1980.
[46] abbreviates: source organism: Bacillus anthracis.
Setting [47] is: source organism: Yellow fever virus.

What is called IC50 is the concentration that inhibits the measured activity by half. The low end stands for greater potency, the high end for weaker potency. What is called Kd is the free concentration of one partner at which half of the binding sites on the other are occupied at equilibrium, for simple one-to-one binding.

For the sequence WMAPSLTES, the 50% inhibitory concentration (IC50) in experiment [1] (setting [31]) came to 11.4 µM; in experiment [2] (setting [31]) it was 6.45 µM.

As to VIYRGTTFA, the half-inhibitory concentration (IC50) was ≥ 70.9 µM in experiment [1] (setting [31]); 1.53 µM in experiment [2] (setting [31]); 45.4 µM in experiment [3] (setting [31]); 38 µM in experiment [4]; 4.21 µM in experiment [5].

As to KSWLVHKQW, the dissociation constant (Kd) in [6] (setting [32]) is 0.0169 µM; in experiment [7] (setting [32]), 0.00587 µM; in [8] (setting [32]), 0.00303 µM.

Turning to FLVINRLGA, the IC50 is ≥ 86.9 µM in experiment [1] (setting [33]) and 0.795 µM in [2] (setting [33]).

As to RVYRRRLAQ, the Kd was 0.0405 µM in [9] (source organism: Burkholderia pseudomallei 1106a), ≥ 20 µM in experiment [10] (setting [34]) and 0.323 µM in experiment [11] (setting [34]).

Regarding REINAHEGQ, the Kd in experiment [12] (setting [35]) was ≥ 20 µM; in [13] (setting [35]), 0.147 µM; in [14], ≥ 20 µM.

In the case of LMQSLYDWI, the Kd was 0.0441 µM in [15] (setting [36]) and 0.0362 µM in [16].

RQRVIPVYQ showed an IC50 in [1] (setting [31]) of 6.37 µM.

Consider KSYAQMWTL, for which the Kd in experiment [6] (setting [37]) came to 0.0164 µM; in [7] (setting [37]), 0.00659 µM; in [8] (setting [37]) it was 0.00637 µM.

For the sequence RVMGITAEW, the Kd is 0.0359 µM in experiment [6] (setting [38]), 0.00297 µM in experiment [7] (setting [38]) and 0.000824 µM in [8] (setting [38]).

Consider GWTETDSSF, for which, in [15] (source organism: Influenza A virus (A/parrot/Ulster/73(H7N1))), the Kd was 0.304 µM.

Regarding MLASIDLKY, the dissociation constant (Kd) in experiment [17] (source organism: Influenza A virus (A/swine/Finistere/127/99(H3N2))) amounted to 0.427 µM.

Turning to IHYAGWVSL, the Kd in [18] (setting [39]) was 0.323 µM; in experiment [12] (setting [39]), ≥ 20 µM; in [19] (setting [39]) it was ≥ 20 µM; in experiment [20] (setting [39]), ≥ 20 µM; in [21] (setting [39]), ≥ 20 µM; in experiment [22] (setting [39]) it was ≥ 20 µM. The Kd in experiment [23] (setting [39]), in [24] (setting [39]), in experiment [25] (setting [39]), in experiment [13] (setting [39]), in experiment [26] (setting [39]) and in experiment [10] (setting [39]) was ≥ 20 µM throughout. For the same sequence, the Kd in [11] (setting [39]) was ≥ 20 µM.

Take RQMLHEIGR: the Kd was 0.00117 µM in [9] (source organism: Paramagnetospirillum magnetotacticum MS-1), 0.66 µM in experiment [10] (setting [40]) and 3.22 µM in experiment [11] (setting [40]).

As for TFAEGVVAF, the values for the IC50 in [1] (setting [31]) and in [3] (setting [31]) were 18.4 µM and 0.213 µM, respectively.

Turning to EFFDTEPQL, the Kd in experiment [18] (setting [41]), in [12] (setting [41]), in [19] (setting [41]), in [20] (setting [41]), in experiment [27] and in [21] (setting [41]) was ≥ 20 µM in each case. The equilibrium dissociation constant (Kd) was ≥ 20 µM in [22] (setting [41]); ≥ 20 µM in [23] (setting [41]); ≥ 20 µM in experiment [24] (setting [41]); ≥ 20 µM in [25] (setting [41]); 2.77 µM in experiment [13] (setting [41]); ≥ 20 µM in [26] (setting [41]). The Kd in [10] (setting [41]) and in experiment [11] (setting [41]) was ≥ 20 µM in each case.

With KSALNDFDF, the Kd stood at 0.0295 µM in experiment [28] (setting [42]), 0.252 µM in experiment [29] (setting [42]) and 0.0268 µM in experiment [26] (setting [42]).

Take ATTFARFLY: the values for the dissociation constant (Kd) in experiment [17] (source organism: Salmonella enterica subsp. enterica serovar Typhi) and in experiment [30] were 0.0193 µM and 0.202 µM, respectively.

Sequence RMGVQMQRF displayed a dissociation constant (Kd) in [15] (source organism: Influenza A virus (A/swine/Hannover/1/1981(H1N1))) of 0.294 µM.

For WIYDPRNQK, the values for the Kd in [9] (setting [43]), in experiment [10] (setting [43]) and in [11] (setting [43]) were 0.107 µM, 0.375 µM and 0.0294 µM, respectively.

As to AQHAPDAAK, the figures for the Kd in experiment [9] (source organism: Burkholderia mallei SAVP1), in experiment [10] (setting [34]) and in experiment [11] (setting [34]) were 0.172 µM, 0.0646 µM and 2.12 µM, respectively.

KLLQICMWF: the dissociation constant Kd is ≥ 20 µM in experiment [18] (setting [41]); ≥ 20 µM in [12] (setting [41]); ≥ 20 µM in experiment [19] (setting [41]); ≥ 20 µM in experiment [20] (setting [41]); 16.6 µM in [27]; ≥ 20 µM in [21] (setting [41]). For the same sequence, the Kd in [22] (setting [41]) is 3.41 µM; in experiment [23] (setting [41]), ≥ 20 µM; in experiment [24] (setting [41]), ≥ 20 µM; in [29] (setting [41]) it was ≥ 20 µM; in experiment [13] (setting [41]), ≥ 20 µM; in [26] (setting [41]), 1.47 µM. Besides, the Kd in [10] (setting [41]) and in experiment [11] (setting [41]) was ≥ 20 µM each time.

In experiment [1] (source organism: Vaccinia virus), FHKNMIKTY yielded an IC50 of 21.8 µM.

For the sequence KAIITPIVF, the results for the 50% inhibitory concentration (IC50) in experiment [1] (setting [44]) and in experiment [3] (setting [44]) were 15.7 µM and 11.1 µM, respectively.

With KAVEKGKNW, the equilibrium dissociation constant (Kd) in experiment [28] (setting [45]) stood at 0.0177 µM; in experiment [26] (setting [45]) it was 0.0915 µM.

Take ISFQQTNAM: the IC50 in experiment [1] (setting [31]) was 6.16 µM; in experiment [2] (setting [31]), 6.39 µM; in experiment [3] (setting [31]), 9.81 µM; in experiment [4] it was ≥ 125 µM.

Consider ITGLPPTEW, for which the dissociation constant Kd is 0.0023 µM in [28] (setting [40]) and 0.0244 µM in experiment [26] (setting [40]).

In experiment [28] (setting [36]), RTAFLRFWL returned a dissociation constant Kd of 0.0015 µM.

As for GLHATFMPK, the Kd turned out to be 0.151 µM in experiment [9] (source organism: Listeria monocytogenes EGD-e), 0.0062 µM in experiment [10] (setting [46]) and 0.0372 µM in experiment [11] (setting [46]).

On to KVVNRWLFR, for which the Kd in [9] (setting [47]) is 0.0011 µM; in experiment [10] (setting [47]), 0.0045 µM.

For the sequence VSFNQNLEY, the equilibrium dissociation constant (Kd) in [17] (source organism: Influenza A virus (A/goose/Guangdong/1/1996(H5N1))) was 0.0259 µM.

IQYPTAWQS: the concentration for half-maximal inhibition (IC50) in experiment [1] (setting [31]) was determined as 25.7 µM; in experiment [2] (setting [31]), 30.6 µM; in [3] (setting [31]) it was 33.5 µM.

As to KFHQIEKEF, the Kd in [15] (source organism: Influenza A virus (A/swine/Hong Kong/81/1978(H3N2))) is 0.0006 µM.

Consider ASDHFVETT, for which, in experiment [17] (source organism: Escherichia coli APEC O1), the equilibrium dissociation constant (Kd) is ≥ 20 µM.

(Values after the Immune Epitope Database (IEDB).)
